We go through two compounds from patent US20130079246A1 (ADDEX PHARMA SA, priority 2010, published 2013).

Assay [1] has as its target T1, chimeric TNFR1-PDGFR receptor (full length human TNFR1 fused to cytoplasmic domain of mouse PDGFR) (Homo sapiens, UniProt P19438).
T1 construct: 1, 2; full length; cytoplasmic domain (cp); expressed in transfected cells; host or cells: HEK293T cells stably expressing apoaequorin
Description: Ca2+-dependent aequorin luminescence in HEK293T Aequorin cells expressing the chimeric receptor (HTS setting). Format: cell-based. The source says: HEK293T stably expressing Apoaequorin were generated using standard cloning techniques. The HEK293T cells expressing Apoaequorin (“Aequorin cells”) were then further transfected as described in Examples 1-3 so as to express the chimeric receptors 1-3 as listed in Table 3.
In particular, the HEK293T Apoaequorin cells were transfected with pcDNA3.1 hygro TNFR1-fl-PDGFR-cd vector as prepared in Example 1 using Optifect™ Transfection Reagent (Invitrogen), according to the manufacturer's protocol.
HEK293T cells expressing Apoaequorin and the chimeric receptor (Example 4) were plated in 384-well plates at a concentration of 12500 cells per well in a final volume of 50 μl. […] A FDSS7000 reader from Hamamatsu (Japan) was used to examine intracellular calcium levels. […] The instrument features include detection with a camera of fluorescence or luminescence and automatically converts fluorescence or luminescence signals into numeric data. This digital data is then used to determine the concentration of calcium inside the analyzed cells. The information is automatically analyzed in terms of a positive, negative or null effect of each test compound being examined. This system allowed differences between untreated and treated cells to be measured, for example by measuring the calcium flux in cells. […]

For assay [2], the target named is chimeric receptor: full length human TNFR1 fused to the cytoplasmic tyrosine kinase domain of mouse PDGFR (human TNFR1; mouse PDGFR). Description: cell-based or functional assay.
Chain of chimeric receptor: full length human TNFR1 fused to the cytoplasmic tyrosine kinase domain of mouse PDGFR (human TNFR1; mouse PDGFR) (chain, as listed by the source mutant limits assumed): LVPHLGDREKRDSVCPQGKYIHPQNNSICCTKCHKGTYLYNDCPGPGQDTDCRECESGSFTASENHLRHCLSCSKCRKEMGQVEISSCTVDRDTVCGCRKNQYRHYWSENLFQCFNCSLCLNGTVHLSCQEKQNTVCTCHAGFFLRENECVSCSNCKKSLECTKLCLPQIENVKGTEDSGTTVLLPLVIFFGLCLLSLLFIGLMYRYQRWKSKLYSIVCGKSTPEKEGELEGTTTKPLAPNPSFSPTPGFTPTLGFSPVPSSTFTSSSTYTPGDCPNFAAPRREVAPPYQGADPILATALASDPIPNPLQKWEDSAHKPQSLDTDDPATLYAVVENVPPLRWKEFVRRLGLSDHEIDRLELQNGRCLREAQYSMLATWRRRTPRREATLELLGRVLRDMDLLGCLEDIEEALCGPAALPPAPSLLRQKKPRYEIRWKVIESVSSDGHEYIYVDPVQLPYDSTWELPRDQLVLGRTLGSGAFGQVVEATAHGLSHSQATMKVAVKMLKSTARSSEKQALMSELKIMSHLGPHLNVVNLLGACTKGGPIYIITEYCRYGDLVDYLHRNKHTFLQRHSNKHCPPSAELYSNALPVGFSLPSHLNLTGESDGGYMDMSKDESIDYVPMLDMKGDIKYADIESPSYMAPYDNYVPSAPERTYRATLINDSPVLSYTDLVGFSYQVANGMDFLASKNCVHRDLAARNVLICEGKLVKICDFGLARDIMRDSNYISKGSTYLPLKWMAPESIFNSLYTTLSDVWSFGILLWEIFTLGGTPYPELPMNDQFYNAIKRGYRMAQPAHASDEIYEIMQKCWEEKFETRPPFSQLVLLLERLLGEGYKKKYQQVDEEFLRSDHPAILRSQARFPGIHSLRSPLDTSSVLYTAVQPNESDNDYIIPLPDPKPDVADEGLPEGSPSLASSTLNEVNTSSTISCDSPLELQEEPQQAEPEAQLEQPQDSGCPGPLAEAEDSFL

Chain of TNF (ligand) (P01375 77-233): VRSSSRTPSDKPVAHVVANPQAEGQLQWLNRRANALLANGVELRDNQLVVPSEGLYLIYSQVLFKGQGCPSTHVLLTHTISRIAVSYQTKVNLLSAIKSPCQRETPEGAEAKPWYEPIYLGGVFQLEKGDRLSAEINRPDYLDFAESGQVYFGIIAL
T1 sequence (P19438 with tags, fused parts or gaps): as the sequence (chain, as listed by the source mutant limits assumed) above

As to `COc1cc2ncnc(N3CCN(C(=O)Nc4ccc(Oc5ccccc5)cc4)CC3)c2cc1OC` [PDGFR Tyrosine Kinase Inhibitor III, 4-(6,7-Dimethoxy-4-quinazolinyl)-N-(4-phenoxyphenyl)-1-piperazinecarboxamide], the “Effect on TNF-dependent intracellular calcium increase” value in assay [1] (1 μM inhibitor, 3 ng/ml TNF, FIG. 5b) is recorded as “prevented the detection of intracellular calcium increase”. For the same compound, in assay [1] (inhibitor 3 μM to 0.45 nM, cells exposed to TNF, FIG. 6), the “Inhibitory efficacy, dose response compared with cells expressing full-length PDGFR” value is given as “equal inhibitory efficacy”.

In assay [2], TNF (ligand) showed an EC50, Ca2+-dependent aequorin luminescence, AUC over 10 minutes of 1.27 ng/mL; an EC50, Ca2+-dependent aequorin luminescence, Max-Min of 1.06 ng/mL; an EC80, Ca2+-dependent aequorin luminescence, AUC over 10 minutes of 2.9 ng/mL; an EC80, Ca2+-dependent aequorin luminescence, Max-Min of 3 ng/mL.
